For this experiment, the target named is A/California/04/2009 H1 (influenza A virus A/California/04/2009) (UniProt C3W5S1). As to the kind of experiment: crystal structure.

As to “A/California/04/2009 H1 (from UniProt C3W5S1 18-520) (natural protein)”, the stoichiometry N stood at 2.

(Values after PMC4978566.)
